{"source": "paper PMC9083066", "system": "T1, FabT (Enterococcus faecalis), ORF:b010fabc", "T1 sequence": "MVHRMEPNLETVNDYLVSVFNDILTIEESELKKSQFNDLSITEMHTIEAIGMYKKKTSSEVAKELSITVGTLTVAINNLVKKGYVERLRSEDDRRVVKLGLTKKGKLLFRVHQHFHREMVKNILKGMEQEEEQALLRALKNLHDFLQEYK", "assay": "EMSA", "settings": "10 nM DNA, 0.1 uM FabT, 0-10 uM acyl-ACP, 10 mM Tris-HCl pH 7.0, 50 mM NaCl, 1 mM EDTA, 1 mM DTT, 10% glycerol, room temperature, 30 min; 6% native PAGE", "data": [{"sequence": "GTCAGGATCCGTCGACATCTGTATTCACCTCCACTGCTTTTGAAAAAAGGTTCTTTCTTTTACTAAAACGCTAAGATACATTGTACTCACAATTTGGGTATTTGTCCATCTTTTTTTCATTTGAGTAACAAACTGATGTCAAGACAATTGCAAATTACTGCAGAATTCTGAC (double strand) [E. faecalis acpB promoter]", "values": [{"measurement": "binding", "result": "no binding"}]}]}
